Assay results from US8334254.

Columns and labels:
[1] = biological target: enterocytic lactoferrin receptor on HT-29-18C1 enterocytic cells (human); test: 125I-labelled ligand on HT29 cells with 100 molar excess of non-labelled native Lf
[2] = biological target: enterocytic lactoferrin receptor on HT-29-18C1 enterocytic cells (human); test: 125I-labelled ligand binding to HT-29-18C1 cells on ice, Scatchard analysis
[3] = biological target: lymphocytic lactoferrin receptor on Jurkat T lymphoblastic cells; test: 125I-labelled ligand binding to Jurkat cells at 4° C., Scatchard analysis
[4] = biological target: lymphocytic lactoferrin receptor on Jurkat T lymphoblastic cells; test: 125I-labelled ligand on Jurkat cells with 100 molar excess of non-labelled native Lf

| non-specific binding as share of total binding [1] [%] | Kd [2] [nM] | sites per cell (sites per cell) [2] | Kd [3] [nM] | non-specific binding as share of total binding [4] [%] | Substance |
| --- | --- | --- | --- | --- | --- |
| 25 | 1000 | 4e+06 | 89.7 | 25 | human lactoferrin isolated from human milk (from UniProt P02788 20-710) (ligand) |
| 25 | 800 | 1.8e+06 | 80.3 | 25 | recombinant human lactoferrin rhLf2 from pBIOC21-PSSp-Lf, purified from tobacco leaves (transformant T30) (from UniProt P02788 20-710) (ligand) |
